# Laboratory results published in US20260248892A1 (Sanofi, published 2026).
# Columns and labels:
# Assay in all cases: cell-based or functional assay
# Rat IR = Rat IR (rat, UniProt P15127 27-1383)
# Pig IR = Pig IR (pig, UniProt F1SCL0 28-1382)
# [1] = molecular target: human insulin receptor isoform B (human, UniProt P06213 28-1382)
# [2] = molecular target: human insulin receptor isoform A (human, UniProt P06213-2 28-1370)
# Rat IR, sequence (P15127 27-1383): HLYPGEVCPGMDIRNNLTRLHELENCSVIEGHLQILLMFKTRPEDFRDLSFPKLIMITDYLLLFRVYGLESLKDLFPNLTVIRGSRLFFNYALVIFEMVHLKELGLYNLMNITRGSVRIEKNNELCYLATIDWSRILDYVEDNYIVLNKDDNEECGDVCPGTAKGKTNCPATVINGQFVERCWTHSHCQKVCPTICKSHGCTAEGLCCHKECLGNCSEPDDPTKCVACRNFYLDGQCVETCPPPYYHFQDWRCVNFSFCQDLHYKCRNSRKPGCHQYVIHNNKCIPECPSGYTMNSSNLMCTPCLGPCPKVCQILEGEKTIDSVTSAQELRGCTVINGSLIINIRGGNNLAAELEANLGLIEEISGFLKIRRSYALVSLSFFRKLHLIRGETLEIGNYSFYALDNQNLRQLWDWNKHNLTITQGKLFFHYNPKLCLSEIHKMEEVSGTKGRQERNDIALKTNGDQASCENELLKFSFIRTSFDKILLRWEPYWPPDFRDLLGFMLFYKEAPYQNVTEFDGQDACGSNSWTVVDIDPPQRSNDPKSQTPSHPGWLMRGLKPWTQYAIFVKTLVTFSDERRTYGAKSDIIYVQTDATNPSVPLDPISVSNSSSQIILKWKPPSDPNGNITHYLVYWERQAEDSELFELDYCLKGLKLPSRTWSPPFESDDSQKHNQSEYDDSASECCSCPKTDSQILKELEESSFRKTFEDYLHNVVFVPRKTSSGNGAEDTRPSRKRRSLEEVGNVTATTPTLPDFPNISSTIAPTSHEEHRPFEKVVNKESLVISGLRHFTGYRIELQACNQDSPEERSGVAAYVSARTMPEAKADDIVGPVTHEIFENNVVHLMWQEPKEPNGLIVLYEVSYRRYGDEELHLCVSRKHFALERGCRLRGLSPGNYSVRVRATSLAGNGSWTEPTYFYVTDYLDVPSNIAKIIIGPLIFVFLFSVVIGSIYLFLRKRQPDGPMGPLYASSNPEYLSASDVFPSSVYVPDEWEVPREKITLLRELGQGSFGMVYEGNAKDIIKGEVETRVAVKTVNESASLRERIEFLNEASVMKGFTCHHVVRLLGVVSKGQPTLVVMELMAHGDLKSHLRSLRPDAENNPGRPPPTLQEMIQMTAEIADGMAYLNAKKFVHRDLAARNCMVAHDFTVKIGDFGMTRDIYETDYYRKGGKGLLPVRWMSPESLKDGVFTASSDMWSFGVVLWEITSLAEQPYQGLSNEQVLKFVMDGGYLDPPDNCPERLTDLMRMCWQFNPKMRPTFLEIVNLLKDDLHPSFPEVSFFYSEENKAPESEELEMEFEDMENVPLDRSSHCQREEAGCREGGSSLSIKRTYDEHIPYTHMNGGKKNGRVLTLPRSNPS
Rat IR phosphorylation [EC50 nM] mean (Rat IR),Pig IR phosphorylation [EC 50 nM] mean (Pig IR),hIR-B-phosphorylation [EC50 nM] mean [1],hIR-A phosphorylation [EC50 nM] mean [2],Binder
1570 nM,61.4 nM,522 nM,1510 nM,scl-Fc fusion protein INS005 (Fc fusion) SFVNQHLCGSHLVEALHLVCGERGFAYTDKTEEYPGDVGIVEQCCTSICSLEQLENYCGGEAEDLQVGQVELGGGPGAGSLQPEGSLQGGPSVFLFPPKPKDTLMISRTPEVTCVVVDVSHEDPEVKFNWYVDGVEVHNAKTKPREEQYNSTYRVVSVLTVLHQDWLNGKEYKCKVSNKALPAPIEKTISKAKGQPREPQVYTLPPSRDELTKNQVSLTCLVKGFYPSDIAVEWESNGQPENNYKTTPPVLDSDGSFFLYSKLTVDKSRWQQGNVFSCSVMHEALHNHYTQKSLSLSPGGGGGSAESKYGPPCPPCPA
137 nM,36.6 nM,94.1 nM,332 nM,scl-Fc fusion protein INS009 (Fc fusion) SFVNQHLCGSHLVEALELVCGERGFHYTPKTGSYPGGVGIVEQCCTSICSLEQLENYCGGEAEDLQVGQVELGGGPGAGSLQPEGSLQGGPSVFLFPPKPKDTLMISRTPEVTCVVVDVSHEDPEVKFNWYVDGVEVHNAKTKPREEQYNSTYRVVSVLTVLHQDWLNGKEYKCKVSNKALPAPIEKTISKAKGQPREPQVYTLPPSRDELTKNQVSLTCLVKGFYPSDIAVEWESNGQPENNYKTTPPVLDSDGSFFLYSKLTVDKSRWQQGNVFSCSVMHEALHNHYTQKSLSLSPGGGGGSAESKYGPPCPPCPA
440 nM,21.2 nM,90 nM,1410 nM,scl-Fc fusion protein INS008 (Fc fusion) SFVNQHLCGSHLVEALELVCGERGFHYTDKTGSYPGGVGIVEQCCTSICSLEQLENYCGGEAEDLQVGQVELGGGPGAGSLQPEGSLQGGPSVFLFPPKPKDTLMISRTPEVTCVVVDVSHEDPEVKFNWYVDGVEVHNAKTKPREEQYNSTYRVVSVLTVLHQDWLNGKEYKCKVSNKALPAPIEKTISKAKGQPREPQVYTLPPSRDELTKNQVSLTCLVKGFYPSDIAVEWESNGQPENNYKTTPPVLDSDGSFFLYSKLTVDKSRWQQGNVFSCSVMHEALHNHYTQKSLSLSPGGGGGSAESKYGPPCPPCPA
95.7 nM,33.5 nM,56.3 nM,211 nM,scl-Fc fusion protein INS015 (Fc fusion) SFVNQHLCGSHLVEALHLVCGERGFHYTPKTEEYPGDVGIVEQCCTSICSLSQLENYCGGEAEDLQVGQVELGGGPGAGSLQPEGSLQGGPSVFLFPPKPKDTLMISRTPEVTCVVVDVSHEDPEVKFNWYVDGVEVHNAKTKPREEQYNSTYRVVSVLTVLHQDWLNGKEYKCKVSNKALPAPIEKTISKAKGQPREPQVYTLPPSRDELTKNQVSLTCLVKGFYPSDIAVEWESNGQPENNYKTTPPVLDSDGSFFLYSKLTVDKSRWQQGNVFSCSVMHEALHNHYTQKSLSLSPGGGGGSAESKYGPPCPPCPA
92.8 nM,28.4 nM,47.9 nM,300 nM,scl-Fc fusion protein INS014 (Fc fusion) SFVNQHLCGSHLVEALHLVCGERGFHYTPKTGSYPGGVGIVEQCCTSICSLSQLEDYCGGEAEDLQVGQVELGGGPGAGSLQPEGSLQGGPSVFLFPPKPKDTLMISRTPEVTCVVVDVSHEDPEVKFNWYVDGVEVHNAKTKPREEQYNSTYRVVSVLTVLHQDWLNGKEYKCKVSNKALPAPIEKTISKAKGQPREPQVYTLPPSRDELTKNQVSLTCLVKGFYPSDIAVEWESNGQPENNYKTTPPVLDSDGSFFLYSKLTVDKSRWQQGNVFSCSVMHEALHNHYTQKSLSLSPGGGGGSAESKYGPPCPPCPA
390 nM,23.5 nM,501 nM,1780 nM,scl-Fc fusion protein INS010 (Fc fusion) SFVNQHLCGSHLVEALHLVCGERGFAYTPKTEEYPGDVGIVEQCCTSICSLEQLENYCGGEAEDLQVGQVELGGGPGAGSLQPEGSLQGGPSVFLFPPKPKDTLMISRTPEVTCVVVDVSHEDPEVKFNWYVDGVEVHNAKTKPREEQYNSTYRVVSVLTVLHQDWLNGKEYKCKVSNKALPAPIEKTISKAKGQPREPQVYTLPPSRDELTKNQVSLTCLVKGFYPSDIAVEWESNGQPENNYKTTPPVLDSDGSFFLYSKLTVDKSRWQQGNVFSCSVMHEALHNHYTQKSLSLSPGGGGGSAESKYGPPCPPCPA
286 nM,52.5 nM,388 nM,1110 nM,scl-Fc fusion protein INS006 (Fc fusion) SFVNQHLCGSHLVEALELVCGERGFHYTDKTEEYPGDVGIVEQCCTSICSLEQLENYCGGEAEDLQVGQVELGGGPGAGSLQPEGSLQGGPSVFLFPPKPKDTLMISRTPEVTCVVVDVSHEDPEVKFNWYVDGVEVHNAKTKPREEQYNSTYRVVSVLTVLHQDWLNGKEYKCKVSNKALPAPIEKTISKAKGQPREPQVYTLPPSRDELTKNQVSLTCLVKGFYPSDIAVEWESNGQPENNYKTTPPVLDSDGSFFLYSKLTVDKSRWQQGNVFSCSVMHEALHNHYTQKSLSLSPGGGGGSAESKYGPPCPPCPA
169 nM,39.6 nM,110 nM,414 nM,scl-Fc fusion protein INS011 (Fc fusion) SFVNQHLCGSHLVEALHLVCGERGFAYTPKTGSYPGGVGIVEQCCTSICSLEQLENYCGGEAEDLQVGQVELGGGPGAGSLQPEGSLQGGPSVFLFPPKPKDTLMISRTPEVTCVVVDVSHEDPEVKFNWYVDGVEVHNAKTKPREEQYNSTYRVVSVLTVLHQDWLNGKEYKCKVSNKALPAPIEKTISKAKGQPREPQVYTLPPSRDELTKNQVSLTCLVKGFYPSDIAVEWESNGQPENNYKTTPPVLDSDGSFFLYSKLTVDKSRWQQGNVFSCSVMHEALHNHYTQKSLSLSPGGGGGSAESKYGPPCPPCPA
54.8 nM,10.8 nM,57.3 nM,82.5 nM,scl-Fc fusion protein INS007 (Fc fusion) SFVNQHLCGSHLVEALHLVCGERGFAYTDKTGSYPGGVGIVEQCCTSICSLEQLENYCGGEAEDLQVGQVELGGGPGAGSLQPEGSLQGGPSVFLFPPKPKDTLMISRTPEVTCVVVDVSHEDPEVKFNWYVDGVEVHNAKTKPREEQYNSTYRVVSVLTVLHQDWLNGKEYKCKVSNKALPAPIEKTISKAKGQPREPQVYTLPPSRDELTKNQVSLTCLVKGFYPSDIAVEWESNGQPENNYKTTPPVLDSDGSFFLYSKLTVDKSRWQQGNVFSCSVMHEALHNHYTQKSLSLSPGGGGGSAESKYGPPCPPCPA
32.1 nM,8.12 nM,22.8 nM,36 nM,scl-Fc fusion protein INS002 (Fc fusion) FVNQHLCGSHLVEALYLVCGERGFFYTDKTEEYPGDVGIVEQCCTSICSLEQLENYCGGEAEDLQVGQVELGGGPGAGSLQPLALEGSLQGGPSVFLFPPKPKDTLMISRTPEVTCVVVDVSHEDPEVKFNWYVDGVEVHNAKTKPREEQYNSTYRVVSVLTVLHQDWLNGKEYKCKVSNKALPAPIEKTISKAKGQPREPQVYTLPPSRDELTKNQVSLTCLVKGFYPSDIAVEWESNGQPENNYKTTPPVLDSDGSFFLYSKLTVDKSRWQQGNVFSCSVMHEALHNHYTQKSLSLSPGGGGGSAESKYGPPCPPCPA
124 nM,50.6 nM,178 nM,466 nM,scl-Fc fusion protein INS012 (Fc fusion) FVNQHLCGSHLVEALHLVCGERGFHYTPKTEEYPGDVGIVEQCCTSICSLSQLEDYCGGEAEDLQVGQVELGGGPGAGSLQPEGSLQGGPSVFLFPPKPKDTLMISRTPEVTCVVVDVSHEDPEVKFNWYVDGVEVHNAKTKPREEQYNSTYRVVSVLTVLHQDWLNGKEYKCKVSNKALPAPIEKTISKAKGQPREPQVYTLPPSRDELTKNQVSLTCLVKGFYPSDIAVEWESNGQPENNYKTTPPVLDSDGSFFLYSKLTVDKSRWQQGNVFSCSVMHEALHNHYTQKSLSLSPGGGGGSAESKYGPPCPPCPA
85.5 nM,41.5 nM,58.8 nM,180 nM,scl-Fc fusion protein INS016 (Fc fusion) FVNQHLCGSHLVEALHLVCGERGFHYTPKTGSYPGGVGIVEQCCTSICSLSQLENYCGGEAEDLQVGQVELGGGPGAGSLQPEGSLQGGPSVFLFPPKPKDTLMISRTPEVTCVVVDVSHEDPEVKFNWYVDGVEVHNAKTKPREEQYNSTYRVVSVLTVLHQDWLNGKEYKCKVSNKALPAPIEKTISKAKGQPREPQVYTLPPSRDELTKNQVSLTCLVKGFYPSDIAVEWESNGQPENNYKTTPPVLDSDGSFFLYSKLTVDKSRWQQGNVFSCSVMHEALHNHYTQKSLSLSPGGGGGSAESKYGPPCPPCPA
23.6 nM,4.17 nM,57.2 nM,5.58 nM,scl-Fc fusion protein INS013 (Fc fusion) FVNQHLCGSHLVEALHLVCGERGFHYTPKTGSYPGGVGIVEQCCTSICSLSQLEDYCGGEAEDLQVGQVELGGGPGAGSLQPEGSLQGGPSVFLFPPKPKDTLMISRTPEVTCVVVDVSHEDPEVKFNWYVDGVEVHNAKTKPREEQYNSTYRVVSVLTVLHQDWLNGKEYKCKVSNKALPAPIEKTISKAKGQPREPQVYTLPPSRDELTKNQVSLTCLVKGFYPSDIAVEWESNGQPENNYKTTPPVLDSDGSFFLYSKLTVDKSRWQQGNVFSCSVMHEALHNHYTQKSLSLSPGGGGGSAESKYGPPCPPCPA
